Measurements reported in patent US20140274782A1, “AFFINITY REAGENTS AND METHODS FOR DETECTION, PURIFICATION, AND PROTEOMIC ANALYSIS OF METHYLATED PROTEINS” (The Board of Trustees of the Leland Stanford Junior …, priority 2013, published 2014).

T1: G9a and GLP (Homo sapiens, UniProt Q96KQ7+Q9H9B1)
T1 sequence (Q96KQ7 2-1210 limits assumed): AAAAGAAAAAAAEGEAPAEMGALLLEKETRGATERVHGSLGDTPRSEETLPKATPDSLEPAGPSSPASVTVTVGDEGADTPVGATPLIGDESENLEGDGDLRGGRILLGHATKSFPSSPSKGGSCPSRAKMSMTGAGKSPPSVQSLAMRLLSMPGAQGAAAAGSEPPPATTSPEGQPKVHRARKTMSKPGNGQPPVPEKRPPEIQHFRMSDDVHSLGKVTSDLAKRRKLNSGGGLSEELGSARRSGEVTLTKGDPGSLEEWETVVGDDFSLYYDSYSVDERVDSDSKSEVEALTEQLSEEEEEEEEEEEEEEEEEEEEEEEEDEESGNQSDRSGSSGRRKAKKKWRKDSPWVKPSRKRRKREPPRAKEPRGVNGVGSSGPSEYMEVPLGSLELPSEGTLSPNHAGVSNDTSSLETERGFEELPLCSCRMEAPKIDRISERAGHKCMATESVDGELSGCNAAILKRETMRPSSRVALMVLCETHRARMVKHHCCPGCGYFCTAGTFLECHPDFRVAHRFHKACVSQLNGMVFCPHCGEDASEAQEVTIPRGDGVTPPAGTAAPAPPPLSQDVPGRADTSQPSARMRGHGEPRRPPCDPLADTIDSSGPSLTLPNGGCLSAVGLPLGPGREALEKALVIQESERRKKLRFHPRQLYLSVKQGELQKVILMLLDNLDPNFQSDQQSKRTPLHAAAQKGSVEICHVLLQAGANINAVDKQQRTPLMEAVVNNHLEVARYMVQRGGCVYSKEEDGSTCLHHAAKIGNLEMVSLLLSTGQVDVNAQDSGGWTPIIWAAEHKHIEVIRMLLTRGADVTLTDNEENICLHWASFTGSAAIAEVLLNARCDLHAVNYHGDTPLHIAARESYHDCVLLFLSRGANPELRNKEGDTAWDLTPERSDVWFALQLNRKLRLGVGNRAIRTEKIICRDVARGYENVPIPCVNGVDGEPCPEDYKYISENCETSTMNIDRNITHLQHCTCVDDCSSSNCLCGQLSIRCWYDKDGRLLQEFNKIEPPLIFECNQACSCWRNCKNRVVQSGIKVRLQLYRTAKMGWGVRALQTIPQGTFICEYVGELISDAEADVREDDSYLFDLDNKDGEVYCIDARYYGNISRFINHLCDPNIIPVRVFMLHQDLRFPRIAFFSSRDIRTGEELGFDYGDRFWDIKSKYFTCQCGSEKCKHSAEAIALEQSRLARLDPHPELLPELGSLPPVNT
T1 sequence (Q9H9B1 2-1298 limits assumed): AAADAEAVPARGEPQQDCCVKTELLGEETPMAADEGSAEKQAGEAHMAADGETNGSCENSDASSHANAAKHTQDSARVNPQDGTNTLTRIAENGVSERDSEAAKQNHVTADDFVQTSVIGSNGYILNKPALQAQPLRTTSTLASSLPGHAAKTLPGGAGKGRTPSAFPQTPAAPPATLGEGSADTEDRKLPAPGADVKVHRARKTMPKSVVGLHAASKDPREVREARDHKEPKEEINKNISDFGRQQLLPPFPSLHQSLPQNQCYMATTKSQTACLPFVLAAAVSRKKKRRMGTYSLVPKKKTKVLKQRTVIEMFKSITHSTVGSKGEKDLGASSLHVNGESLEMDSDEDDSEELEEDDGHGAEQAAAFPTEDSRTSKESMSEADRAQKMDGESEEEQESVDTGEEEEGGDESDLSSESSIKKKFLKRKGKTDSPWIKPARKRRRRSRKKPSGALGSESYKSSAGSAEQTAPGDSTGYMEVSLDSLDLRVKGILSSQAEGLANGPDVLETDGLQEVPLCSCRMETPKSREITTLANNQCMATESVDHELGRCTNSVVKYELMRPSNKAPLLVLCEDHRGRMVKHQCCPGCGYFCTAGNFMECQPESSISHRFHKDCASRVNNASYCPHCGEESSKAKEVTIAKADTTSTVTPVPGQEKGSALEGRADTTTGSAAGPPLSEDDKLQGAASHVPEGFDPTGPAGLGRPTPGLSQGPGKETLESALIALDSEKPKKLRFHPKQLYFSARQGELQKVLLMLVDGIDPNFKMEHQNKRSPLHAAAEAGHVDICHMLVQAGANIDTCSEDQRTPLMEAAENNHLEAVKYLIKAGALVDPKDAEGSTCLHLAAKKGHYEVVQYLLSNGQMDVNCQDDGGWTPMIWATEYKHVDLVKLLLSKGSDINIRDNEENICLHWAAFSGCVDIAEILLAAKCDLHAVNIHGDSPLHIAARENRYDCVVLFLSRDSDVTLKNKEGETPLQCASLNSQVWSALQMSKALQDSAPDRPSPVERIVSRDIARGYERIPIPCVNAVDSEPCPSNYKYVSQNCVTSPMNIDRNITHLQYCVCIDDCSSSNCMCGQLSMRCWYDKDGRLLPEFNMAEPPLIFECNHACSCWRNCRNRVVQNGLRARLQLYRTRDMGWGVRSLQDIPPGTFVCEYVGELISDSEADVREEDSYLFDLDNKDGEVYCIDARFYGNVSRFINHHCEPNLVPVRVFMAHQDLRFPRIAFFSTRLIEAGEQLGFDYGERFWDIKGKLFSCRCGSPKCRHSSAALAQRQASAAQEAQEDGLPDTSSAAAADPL


What was measured:
G9a and GLP = molecular target: T1, G9a and GLP; test: Triple SILAC pull-down after UNC0638 treatment of 293T cells, DMSO/UNC0638 ratio of protein captured by 3×MBT; type: cell-based; design: endogenous in cells; host or cells: HEK 293T; settings: for Relative to UNC0638 UNC Heavy / Relative to UNC0638 UNC Light: SILAC ratio DMSO/UNC0638 of protein pulled down with 3xMBT; for Relative to UNC0638 UNC Heavy: UNC0638 in heavy SILAC media; for Relative to UNC0638 UNC Light: UNC0638 in light SILAC media; for Relative to UNC0638 Average: average of UNC Light and UNC Heavy experiments;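 for all read-outs here: mass spectrometry (Q-Exactive) SILAC quantitation, DMSO/UNC0638 ratio computed after subtracting 3×MBTD355N mutant pull-down background, only proteins with at least twofold 3×MBT over mutant signal considered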
3×MBT domain of L3MBTL1 = test: Triple SILAC pull-down, 3xMBT/3xMBTD355N ratio (cytoplasmic, nuclear and chromatin fractions of 293T cells); type: binding, human; settings: SILAC ratio, pull-down 3xMBT vs 3xMBTD355N; for 3xMBT/D355N UNC Heavy: experiment with UNC0638 in heavy SILAC media; for 3xMBT/D355N UNC Light: experiment with UNC0638 in light SILAC media;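 for all read-outs here: proteins quantified with MaxQuant, requiring at least two unique peptides and quantification in both label directions, normalized to the mean of proteins from a digested loading control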

| Molecule | Relative to UNC0638 UNC Heavy (G9a and GLP) | Relative to UNC0638 UNC Light (G9a and GLP) | Relative to UNC0638 Average (G9a and GLP) | 3xMBT/D355N UNC Heavy (3×MBT domain of L3MBTL1) | 3xMBT/D355N UNC Light (3×MBT domain of L3MBTL1) |
| --- | --- | --- | --- | --- | --- |
| CAPRIN1 (protein, UniProt Q14444 2-709, looked up) Caprin-1: PSATSHSGSGSKSSGPPPPSGSSGSEAAAGAGAAAPASQHPATGTGAVQTEAMKQILGVIDKKLRNLEKKKGKLDDYQERMNKGERLNQDQLDAVSKYQEVTNNLEFAKELQRSFMALSQDIQKTIKKTARREQLMREEAEQKRLKTVLELQYVLDKLGDDEVRTDLKQGLNGVPILSEEELSLLDEFYKLVDPERDMSLRLNEQYEHASIHLWDLLEGKEKPVCGTTYKVLKEIVERVFQSNYFDSTHNHQNGLCEEEEAASAPAVEDQVPEAEPEPAEEYTEQSEVESTEYVNRQFMAETQFTSGEKEQVDEWTVETVEVVNSLQQQPQAASPSVPEPHSLTPVAQADPLVRRQRVQDLMAQMQGPYNFIQDSMLDFENQTLDPAIVSAQPMNPTQNMDMPQLVCPPVHSESRLAQPNQVPVQPEATQVPLVSSTSEGYTASQPLYQPSHATEQRPQKEPIDQIQATISLNTDQTTASSSLPAASQPQVFQAGTSKPLHSSGINVNAAPFQSMQTVFNMNAPVPPVNEPETLKQQNQYQASYNQSFSSQPHQVEQTELQQEQLQTVVGTYHGSPDQSHQVTGNHQQPPQQNTGFPRSNQPYYNSRGVSRGGSRGARGLMNGYRGPANGFRGGYDGYRPSFSNTPNSGYTQSQFSAPRDYSGYQRDGYQQNFKRGSGQSGPRGAPRGRGGPPRPNRGMPQMNTQQVN | −1.08 log base 2 | 1.34 log base 2 | 0.13 log base 2 | 2.45 log base 2 | 4.36 log base 2 |
| LRWD1 (protein, UniProt Q9UFC0 1-647, looked up) Leucine-rich repeat and WD …: MGPLSARLLMQRGRPKSDRLGKIRSLDLSGLELLSEHLDPKLLCRLTQLQELDLSNNHLETLPDNLGLSHLRVLRCANNQLGDVTALCQFPKLEELSLEGNPFLTVNDNLKVSFLLPTLRKVNGKDASSTYSQVENLNRELTSRVTAHWEKFMATLGPEEEAEKAQADFVKSAVRDVRYGPESLSEFTQWRVRMISEELVAASRTQVQKANSPEKPPEAGAAHKPRARLAALKRPDDVPLSLSPSKRACASPSAQVEGSPVAGSDGSQPAVKLEPLHFLQCHSKNNSPQDLETQLWACAFEPAWEEGATSQTVATCGGEAVCVIDCQTGIVLHKYKAPGEEFFSVAWTALMVVTQAGHKKRWSVLAAAGLRGLVRLLHVRAGFCCGVIRAHKKAIATLCFSPAHETHLFTASYDKRIILWDIGVPNQDYEFQASQLLTLDTTSIPLRLCPVASCPDARLLAGCEGGCCCWDVRLDQPQKRRVCEVEFVFSEGSEASGRRVDGLAFVNEDIVASKGSGLGTICLWSWRQTWGGRGSQSTVAVVVLARLQWSSTELAYFSLSACPDKGIVLCGDEEGNVWLYDVSNILKQPPLLPAALQAPTQILKWPQPWALGQVVTKTMVNTVVANASFTYLTALTDSNIVAIWGRM | 0.01 log base 2 | 0.25 log base 2 | 0.13 log base 2 | 2.59 log base 2 | 2.64 log base 2 |
| SRBD1 (protein, UniProt Q8N5C6 1-995, looked up) S1 RNA-binding …: MSSLPRRAKVQVQDVVLKDEFSSFSELSSASEEDDKEDSAWEPQKKVPRSRKQPPPKESKPKRMPRVKKNAPQISDGSEVVVVKEELNSSVAIADTALEDRKNKLDTVQTLKTAKTKQKCAAQPHTVRRTKKLKVEEETSKASNLEGESNSSETPSTSTVWGGTCKKEENDDDFTFGQSALKKIKTETYPQGQPVKFPANANSTKEEVEMNWDMVQVLSERTNIEPWVCANIIRLFNDDNTIPFIIRYRKELINNLDADSLREVQQTLEELRAVAKKVHSTIQKIKKEGKMSECLLKAMLNCKTFEELEHVSAPYKTGSKGTKAQRARQLGLEGAARALLEKPGELSLLSYIRPDVKGLSTLQDIEIGVQHILADMIAKDKDTLDFIRNLCQKRHVCIQSSLAKVSSKKVNEKDVDKFLLYQHFSCNIRNIHHHQILAINRGENLKVLTVKVNISDGVKDEFCRWCIQNRWRPRSFARPELMKILYNSLNDSFKRLIYPLLCREFRAKLTSDAEKESVMMFGRNLRQLLLTSPVPGRTLMGVDPGYKHGCKLAIISPTSQILHTDVVYLHCGQGFREAEKIKTLLLNFNCSTVVIGNGTACRETEAYFADLIMKNYFAPLDVVYCIVSEAGASIYSVSPEANKEMPGLDPNLRSAVSIARRVQDPLAELVKIEPKHIGVGMYQHDVSQTLLKATLDSVVEECVSFVGVDINICSEVLLRHIAGLNANRAKNIIEWREKNGPFINREQLKKVKGLGPKSFQQCAGFIRINQDYIRTFCSQQTETSGQIQGVAVTSSADVEVTNEKQGKKKSKTAVNVLLKPNPLDQTCIHPESYDIAMRFLSSIGGTLYEVGKPEMQQKINSFLEKEGMEKIAERLQTTVHTLQVIIDGLSQPESFDFRTDFDKPDFKRSIVCLEDLQIGTVLTGKVENATLFGIFVDIGVGKSGLIPIRNVTEAKLSKTKKRRSLGLGPGERVEVQVLNIDIPRSRITLDLIRVL | −0.13 log base 2 | 0.37 log base 2 | 0.12 log base 2 | 1.02 log base 2 | 1.29 log base 2 |
| PRPF19 (protein, UniProt Q9UMS4 2-504, looked up) Pre-mRNA-processing factor 19: SLICSISNEVPEHPCVSPVSNHVYERRLIEKYIAENGTDPINNQPLSEEQLIDIKVAHPIRPKPPSATSIPAILKALQDEWDAVMLHSFTLRQQLQTTRQELSHALYQHDAACRVIARLTKEVTAAREALATLKPQAGLIVPQAVPSSQPSVVGAGEPMDLGELVGMTPEIIQKLQDKATVLTTERKKRGKTVPEELVKPEELSKYRQVASHVGLHSASIPGILALDLCPSDTNKILTGGADKNVVVFDKSSEQILATLKGHTKKVTSVVFHPSQDLVFSASPDATIRIWSVPNASCVQVVRAHESAVTGLSLHATGDYLLSSSDDQYWAFSDIQTGRVLTKVTDETSGCSLTCAQFHPDGLIFGTGTMDSQIKIWDLKERTNVANFPGHSGPITSIAFSENGYYLATAADDSSVKLWDLRKLKNFKTLQLDNNFEVKSLIFDQSGTYLALGGTDVQIYICKQWTEILHFTEHSGLTTGVAFGHHAKFIASTGMDRSLKFYSL | 0.39 log base 2 | −0.15 log base 2 | 0.12 log base 2 | 2.05 log base 2 | 1.97 log base 2 |
